Key:
[1] = target: purified human Sortilin extracellular domain (produced in stably transfected CHO cells) (human) (UniProt Q99523); assay: SPR (Biacore), immobilised Sortilin extracellular domain (94 fmol/mm2); GST-pro-domain of proBDNF, upper panel of FIG. 7
[2] = target: T1, recombinant his-S-tagged pro-domain of human BDNF (residues Ala1-Arg110), from pET-30 Xa/LIC, E. coli (human) (UniProt P23560); assay: SPR competition, 390 nM Sortilin with 300 uM peptide over immobilised pro-dom-BDNF
T1 sequence: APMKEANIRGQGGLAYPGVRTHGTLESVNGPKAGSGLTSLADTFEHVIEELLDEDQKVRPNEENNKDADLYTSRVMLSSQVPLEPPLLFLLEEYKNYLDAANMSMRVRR

purified human Sortilin extracellular domain (produced in stably transfected CHO cells) (human), sequence (Q99523 78-755 V650M limits assumed): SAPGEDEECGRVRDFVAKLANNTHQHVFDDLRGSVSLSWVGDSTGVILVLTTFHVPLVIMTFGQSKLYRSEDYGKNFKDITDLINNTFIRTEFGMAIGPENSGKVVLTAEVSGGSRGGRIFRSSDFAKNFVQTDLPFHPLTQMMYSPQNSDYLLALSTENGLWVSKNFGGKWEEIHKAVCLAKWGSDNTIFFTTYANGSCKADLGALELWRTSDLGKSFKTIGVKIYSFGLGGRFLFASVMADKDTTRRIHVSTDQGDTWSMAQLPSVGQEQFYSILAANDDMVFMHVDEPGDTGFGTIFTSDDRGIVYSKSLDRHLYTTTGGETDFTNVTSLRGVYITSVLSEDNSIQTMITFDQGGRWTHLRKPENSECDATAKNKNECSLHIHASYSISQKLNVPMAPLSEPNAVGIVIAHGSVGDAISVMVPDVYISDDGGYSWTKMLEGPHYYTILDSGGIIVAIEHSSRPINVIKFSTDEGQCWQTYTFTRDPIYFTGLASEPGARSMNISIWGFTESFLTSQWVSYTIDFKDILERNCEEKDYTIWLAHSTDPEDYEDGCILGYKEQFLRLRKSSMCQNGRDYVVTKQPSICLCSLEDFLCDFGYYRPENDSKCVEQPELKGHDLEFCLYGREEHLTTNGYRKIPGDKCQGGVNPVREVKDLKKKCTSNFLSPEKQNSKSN

B1: pro-domain of human BDNF fused to GST (glutathione S-transferase), produced in E. coli (protein, not shown: a dimerising Fc or GST)
chain: APMKEANIRGQGGLAYPGVRTHGTLESVNGPKAGSGLTSLADTFEHVIEELLDEDQKVRPNEENNKDADLYTSRVMLSSQVPLEPPLLFLLEEYKNYLDAANMSMRVRR
[1]
  Kd: 58 nM

## RSSDFAKNFVQTDLPF [sortilin peptide … (synthetic, soluble)]
[2]
  percent inhibition of Sortilin binding to pro-dom-BDNF: 66%
